Results taken from patent US20140348832A1 (Sanofi, published 2014).

Legend:
[1] = molecular target: MHCII (pMHCII) on mouse antigen presenting cells; experiment: cell-based or functional assay
[2] = molecular target: mouse cytotoxic T lymphocyte associated antigen-4 (CTLA-4) on activated T cells (mouse, UniProt P09793 36-223); experiment: cell-based or functional assay

EC50 of BsB for inducing Tregs in vitro [1]: ~100 nM | potency of BsB at inducing the production of Tregs (EC50) [1]: > 100 nM
B1: BsB, bispecific fusion protein CD80wa-LAG-3-Fc (mouse CD80w88a(aa1-235)-G9-Lag-3(aa25-260)-IgG2a(aa241-474)) (Fc fusion)
chain: VDEQLSKSVKDKVLLPCRYNSPHEDESEDRIYWQKHDKVVLSVIAGKLKVAPEYKNRTLYDNTTYSLIILGLVLSDRGTYSCVVQKKERGTYEVKHLALVKLSIKADFSTPNITESGNPSADTKRITCFASGGFPKPRFSWLENGRELPGINTTISQDPESELYTISSQLDFNTTRNHTIKCLIKYGDAHVSEDFTWGGGGGGGGGGPGKELPVVWAQEGAPVHLPCSLKSPNLDPNFLRRGGVIWQHQPDSGQPTPIPALDLHQGMPSPRQPAPGRYTVLSVAPGGLRSGRQPLHPHVQLEERGLQRGDFSLWLRPALRTDAGEYHATVRLPNRALSCSLRLRVGQASMIASPSGVLKLSDWVLLNCSFSRPDRPVSVHWFQGQNRVPVYNSPRHFLAETFLLLPQVSPLDSGTWGCVLTYRDGFNVSITYNLKVLGLEPVAPRGPTIKPCPPCKCPAPNLLGGPSVFIFPPKIKDVLMISLSPMVTCVVVDVSEDDPDVQISWFVNNVEVLTAQTQTHREDYNSTLRVVSALPIQHQDWMSGKEFKCKVNNKALPAPIERTISKPKGSVRAPQVYVLPPPEEEMTKKQVTLTCMVTDFMPEDIYVEWTNNGKTELNYKNTEPVLDSDGSYFMYSKLRVEKKNWVERNSYSCSVVHEGLHNHHTTKSFSRTPGK
EC50 of BsB for inducing Tregs in vitro [2]: ~100 nM | potency of BsB at inducing the production of Tregs (EC50) [2]: > 100 nM
